According to US20230272082A1 (SENSEI BIOTHERAPEUTICS, published 2023):

Legend:
human VISTA [1] = target: T1, human VISTA (human, UniProt Q9H7M9 33-194, limits assumed); experiment: flow cytometry on CHO-VISTA cells, pH 7.4, detection Anti-Fab 647 (legend: Fab on CHO-VISTA cells)
T1 construct: also called hVISTA

human VISTA [2] = target: T1, human VISTA; experiment: flow cytometry on CHO-VISTA cells, pH 6.0, detection Anti-Fab 647 (legend: Fab on CHO-VISTA cells)
biotinylated hVISTA-Fc [3] = target: T2, biotinylated hVISTA-Fc (human, biotinylated (site not stated)); experiment: competition ELISA at pH 6.0; SNS-101 dilutions pre-incubated with biotinylated hVISTA-Fc, then added to wells coated with VSIG-3 (blocked partner)
T2 construct: also called Human VISTA-Fc
T2 chain: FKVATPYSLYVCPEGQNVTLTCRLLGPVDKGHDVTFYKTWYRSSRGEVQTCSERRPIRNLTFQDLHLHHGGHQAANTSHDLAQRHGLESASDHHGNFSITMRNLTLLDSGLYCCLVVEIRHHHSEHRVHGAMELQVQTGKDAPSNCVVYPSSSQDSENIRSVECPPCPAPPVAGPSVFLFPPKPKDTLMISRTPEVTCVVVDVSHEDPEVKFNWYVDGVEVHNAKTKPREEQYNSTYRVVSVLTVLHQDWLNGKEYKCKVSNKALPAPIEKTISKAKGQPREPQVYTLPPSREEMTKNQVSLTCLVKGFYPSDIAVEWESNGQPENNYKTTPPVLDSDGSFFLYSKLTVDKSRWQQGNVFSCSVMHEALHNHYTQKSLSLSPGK

biotinylated hVISTA-Fc [4] = target: T2, biotinylated hVISTA-Fc; experiment: competition ELISA at pH 6.0; SNS-101 dilutions pre-incubated with biotinylated hVISTA-Fc, then added to wells coated with PSGL-1 (blocked partner)
biotinylated hVISTA-Fc [5] = target: T2, biotinylated hVISTA-Fc; experiment: competition ELISA at pH 6.0; SNS-101 dilutions pre-incubated with biotinylated hVISTA-Fc, then added to wells coated with VSIG-8 (blocked partner)
biotinylated hVISTA-Fc [6] = target: T2, biotinylated hVISTA-Fc; experiment: competition ELISA at pH 6.0; SNS-101 dilutions pre-incubated with biotinylated hVISTA-Fc, then added to wells coated with LRIG-1 (blocked partner)
biotinylated hVISTA-Fc [7] = target: T2, biotinylated hVISTA-Fc; experiment: competition ELISA at pH 6.0; SNS-101 dilutions pre-incubated with biotinylated hVISTA-Fc, then added to wells coated with Syndecan-2 (blocked partner)

B1: antibody 55873 (mab#2) (antibody, V domains shown)
VH: EVQLVESGGGLVQPGGSLRLSCAASGFTFSSYSMNWVRQAPGKGLEWVSYISSSSSTIYYADSVKGRFTISRDNAKNSLYLQMNSLRAEDTAVYYCAREAGGVVGRVDFQHWGQGTLVTVSS
VL: DIQMTQSPSSLSASVGDRVTITCQASQDISNYLNWYQQKPGKAPKLLIYDASNLETGVPSRFSGSGSGTDFTFTISSLQPEDIATYYCQQADFLPPWTFGGGTKVEIK
notes: Fully human parental antibody; also called Anti-VISTA mAb #2
- FOB (fold over background) (human VISTA [1]): 34.8
- FOB (fold over background) (human VISTA [2]): 29.4

B2: SNS-101 (antibody, human IgG1, V domains shown)
VH: EVQLVESGGGLVQPGGSLRLSCAASGFTFDDYSMNWVRQAPGKGLEWVSYISSDADTIYYADSVKGRFTISRDNAKNSLYLQMNSLRAEDTAVYYCAREAGGVLGRVDFQHWGQGTLVTVSS
VL: DIQLTQSPSSLSASVGDRVTITCQASQDISNYLNWYQQKPGKAPKLLIYDASNLGTGVPSRFSGSGSGTDFTFTISSLQPEDIATYYCQQADFVPPWTFGGGTKVEIK
notes: Described as a fully human IgG1; also called antibody 67375
- IC50 (biotinylated hVISTA-Fc [3]): 6 nM
- IC50 (biotinylated hVISTA-Fc [4]): 7 nM
- IC50 (biotinylated hVISTA-Fc [5]): 6 nM
- IC50 (biotinylated hVISTA-Fc [6]): 6 nM
- IC50 (biotinylated hVISTA-Fc [7]): 6 nM
